Target: T1, human VEGF-R2(KDR):Fc fusion protein (R&D Systems) (human, UniProt P35968 20-764)
T1 construct: Bought reagent, coated on Maxisorp plates; also called VEGF receptor; human VEGF receptor; not shown: Fc part of the bought fusion
Experiment: ELISA on plates coated with VEGF-R2(KDR):Fc; bound VEGF detected with biotinylated anti-VEGF

T1 sequence (P35968 20-764 limits assumed): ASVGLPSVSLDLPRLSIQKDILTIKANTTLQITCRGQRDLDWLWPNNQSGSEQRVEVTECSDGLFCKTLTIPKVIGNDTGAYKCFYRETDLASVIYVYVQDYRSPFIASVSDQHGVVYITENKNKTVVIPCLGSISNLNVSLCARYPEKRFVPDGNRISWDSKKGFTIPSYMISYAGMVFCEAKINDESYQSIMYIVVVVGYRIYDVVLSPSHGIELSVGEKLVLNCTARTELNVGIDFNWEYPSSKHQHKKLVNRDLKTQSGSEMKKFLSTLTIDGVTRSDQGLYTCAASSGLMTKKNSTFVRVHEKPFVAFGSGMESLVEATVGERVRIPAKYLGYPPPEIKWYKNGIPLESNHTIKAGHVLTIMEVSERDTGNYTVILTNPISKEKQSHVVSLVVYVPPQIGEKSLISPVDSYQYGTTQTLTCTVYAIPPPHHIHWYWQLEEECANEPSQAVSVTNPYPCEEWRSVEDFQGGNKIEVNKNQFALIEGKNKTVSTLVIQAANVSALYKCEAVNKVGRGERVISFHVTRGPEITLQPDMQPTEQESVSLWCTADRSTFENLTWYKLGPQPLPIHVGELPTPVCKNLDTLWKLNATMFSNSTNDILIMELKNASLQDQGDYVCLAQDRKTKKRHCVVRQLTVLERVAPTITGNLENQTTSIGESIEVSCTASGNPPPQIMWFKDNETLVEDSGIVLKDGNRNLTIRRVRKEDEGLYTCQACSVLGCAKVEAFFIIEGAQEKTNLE

B1: algal-expressed human vascular endothelial growth factor (VEGF) isoform 121, without signal peptide, with C-terminal FLAG-tag, made in the C. reinhardtii … (ligand)
chain: MVPAPMAEGGGQNHHEVVKFMDVYQRSYCHPIETLVDIFQEYPDEIEYIFKPSCVPLMRCGGCCNDEGLECVPTEESNITMQIMRIKPHQGQHIGEMSFLQHNKCECRPKKDRARQENCDKPRRGTGENLYFQGSGGGGSDYKDDDDKGTG
notes: Native VEGF is active as a dimer; also called algal VEGF; algae-derived VEGF
binding result: binds
